Experimental data: paper doi:10.1101/682807
“And” between values parts separate entries of the source, which are not always exact repeats. Equal entries are not always repeated.

Experiments:
[1] = molecular target: HR4^Fei-0 (overexpressed in N. benthamiana) (A. thaliana); experiment: SDS-resistant dimers on SDS-PAGE immunoblot
[2] = molecular target: RPP7b-3×FLAG (A. thaliana); experiment: native gel or EMSA

| Substance | stoichiometry N [1] | stoichiometry N [2] |
| --- | --- | --- |
| HR4^Fei-0 (overexpressed in N. benthamiana) (natural protein) | 2 | – |
| RPP7b-3×FLAG (natural protein) | – | 7 and 6 |
